Data reported in US20230331809A1 (Zymeworks, published 2023).
Positions count from the first letter of the chain named.

What was measured:
[1] = target: T1, PD-L1 (Programmed death-ligand 1) on cells (UniProt Q9NZQ7 19-290); experiment: cell-based or functional assay
[2] = target: T2, CD3 (Cluster of Differentiation 3) on Jurkat cells and on pan T cells (human, UniProt P07766 23-207); experiment: flow cytometry on pan T cells (CD3), MFI
T2 construct: whole, on cells

[3] = target: T2, CD3 (Cluster of Differentiation 3) on …; experiment: flow cytometry on human pan T cells, separate experiment (FIG. 32)
[4] = target: T1, PD-L1 (Programmed death-ligand 1) on …; experiment: flow cytometry on PD-L1 transfected CHO-S cells, MFI; * poor fit; uncleavable variant, sample treated with uPa
[5] = target: T1, PD-L1 (Programmed death-ligand 1) on …; experiment: flow cytometry on PD-L1 transfected CHO-S cells, MFI; * poor fit
[6] = target: T2, CD3 (Cluster of Differentiation 3) on …; experiment: cell-based or functional assay
[7] = target: T3, PD-1 (Programmed Cell Death Protein 1) on cells (UniProt Q15116 25-288); experiment: flow cytometry on PD-1 transfected CHO-S cells, MFI; * poor fit
T3 construct: whole, on cells

[8] = target: T2, CD3 (Cluster of Differentiation 3) on …; experiment: cell ELISA on Jurkat cells (CD3), OD450; EC50 relative to v30421
[9] = target: T2, CD3 (Cluster of Differentiation 3) on …; experiment: flow cytometry on pan T cells (CD3), MFI; sample treated with uPa; EC50 relative to v30421 -uPa
[10] = target: T2, CD3 (Cluster of Differentiation 3) on …; experiment: flow cytometry on pan T cells (CD3), MFI; remark: listed apart in the source
[11] = target: T2, CD3 (Cluster of Differentiation 3) on …; experiment: flow cytometry on pan T cells (CD3), MFI; sample treated with uPa (uncleavable linkers)
[12] = target: T2, CD3 (Cluster of Differentiation 3) on …; experiment: cell ELISA on Jurkat cells (CD3), OD450; EC50 relative to v30421; uncleavable variant, sample treated with uPa
[13] = target: T2, CD3 (Cluster of Differentiation 3) on …; experiment: cell ELISA on Jurkat cells (CD3), OD450
[14] = target: T2, CD3 (Cluster of Differentiation 3) on …; experiment: flow cytometry on human pan T cells
[15] = target: T2, CD3 (Cluster of Differentiation 3) on …; experiment: cell ELISA on Jurkat cells (CD3), OD450; uncleavable variant, sample treated with uPa
[16] = target: T3, PD-1 (Programmed Cell Death Protein 1) …; experiment: flow cytometry on PD-1 transfected CHO-S cells, MFI; * poor fit; uncleavable variant, sample treated with uPa
[17] = target: T4, CD40 (Cluster of Differentiation 40) on cells (UniProt P25942 21-277, limits assumed); experiment: flow cytometry on Raji cells (CD40), MFI
T4 construct: whole, on cells

[18] = target: T4, CD40 (Cluster of Differentiation 40) on …; experiment: cell-based or functional assay
[19] = target: T4, CD40 (Cluster of Differentiation 40) on …; experiment: flow cytometry on Raji cells (CD40), MFI; sample treated with uPa (variant has no cleavage site)
[20] = target: T4, CD40 (Cluster of Differentiation 40) on …; experiment: flow cytometry on Raji cells (CD40), MFI; sample treated with uPa; EC50 relative to v32477 -uPa
[21] = target: T4, CD40 (Cluster of Differentiation 40) on …; experiment: flow cytometry on Raji cells (CD40), MFI; EC50 relative to v32477 -uPa
[22] = target: T2, CD3 (Cluster of Differentiation 3) on …; experiment: cell ELISA on Jurkat cells (CD3), OD450; remark: listed apart in the source
[23] = target: T2, CD3 (Cluster of Differentiation 3) on …; experiment: cell ELISA on Jurkat cells (CD3), OD450; reference sample
[24] = target: T2, CD3 (Cluster of Differentiation 3) on …; experiment: flow cytometry on pan T cells (CD3), MFI; sample treated with uPa (variant has no mask)
[25] = target: T5, CDH3 (Cadherin 3) on JIMT1 cells (UniProt P22223 108-829, limits assumed); experiment: flow cytometry on JIMT1 cells (CDH3), MFI
T5 construct: whole, on cells; also called P-cadherin

[26] = target: T5, CDH3 (Cadherin 3) on JIMT1 cells; experiment: flow cytometry on JIMT1 cells (CDH3), MFI; reference sample
[27] = target: T5, CDH3 (Cadherin 3) on JIMT1 cells; experiment: flow cytometry on JIMT1 cells (CDH3), MFI; EC50 relative to v17214
[28] = target: T3, PD-1 (Programmed Cell Death Protein 1) …; experiment: flow cytometry on PD-1 transfected CHO-S cells, MFI; * poor fit; uncleavable variant, table and legend box disagree on the uPa treatment
[29] = target: T6, Mesothelin (MSLN) on OVCAR3 cells (UniProt Q13421 296-598); experiment: flow cytometry on OVCAR3 cells (MSLN), MFI
T6 construct: whole, on cells

[30] = target: T6, Mesothelin (MSLN) on OVCAR3 cells; experiment: flow cytometry on OVCAR3 cells (MSLN), MFI; EC50 relative to v16417

B1: Variant 32497: Half-masked CD3 × Her2 Fab × scFv Fc, PD-1 KO attached to HC (bispecific antibody, human IgG1, kappa, L234A L235A)
heavy: not shown
light: DIQMTQSPSSLSASVGDRVTMTCSASSSVSYMNWYQQKPGKAPKRWIYDSSKLASGVPARFSGSGSGTDYTLTISSLQPEDFATYYCQQWSRNPPTFGGGTKLQITRTVAAPSVFIFPPSDEQLKSGTASVVCLLNNFYPREAKVQWKVDNALQSGNSQESVTEQDSKDSTYSLSSTLTLSKADYEKHKVYACEVTHQGLSSPVTKSFNRGEC
chain: not shown
notes: also called v32497; variant with a non-functional PD-1 domain appended to the heavy chain
[1]
  TDCC potency on JIMT-1 target cells, fold EC50 vs unmasked v30421: 55 fold
[2]
  EC50: 13 nM
[3]
  fold reduction in binding vs unmasked control: 6 fold

B2: Variant 30423: HA PD-1:WT PD-L1 masked CD3 × Her2 Fab × scFv Fc, with an uncleavable linker (bispecific antibody, human IgG1, kappa, L234A L235A)
heavy: not shown
light: AFTVTVPKDLYVVEYGSNMTIECKFPVEKQLDLAALIVYWEMEDKNIIQFVHGEEDLKVQHSSYRQRARLLKDQLSLGNAALQITDVKLQDAGVYRCMISYGGADYKRITVKVNAEAAAKEAAAKDIQMTQSPSSLSASVGDRVTMTCSASSSVSYMNWYQQKPGKAPKRWIYDSSKLASGVPARFSGSGSGTDYTLTISSLQPEDFATYYCQQWSRNPPTFGGGTKLQITRTVAAPSVFIFPPSDEQLKSGTASVVCLLNNFYPREAKVQWKVDNALQSGNSQESVTEQDSKDSTYSLSSTLTLSKADYEKHKVYACEVTHQGLSSPVTKSFNRGEC
chain: not shown
notes: also called masked, uncleavable variant
[4]
  EC50: > 200 nM
  Fold wrt v31929: > 570 fold
[5]
  EC50: > 200 nM
  Fold wrt v31929: > 570 fold
[6]
  TDCC potency (JIMT-1 cells, pan T cells), fold decrease vs unmasked 30421: 49000 fold
[7]
  Fold wrt v31931: > 35 fold
[8]
  Fold wrt WT: 63 fold
[9]
  Fold wrt WT: > 43 fold
[10]
  EC50: > 100 nM
[11]
  EC50: > 100 nM
[12]
  Fold wrt WT: 100 fold
[13]
  EC50: 77 nM
[14]
  fold reduced binding vs unmasked control (30421): > 43 fold
[15]
  EC50: 120 nM
[16]
  Fold wrt v31931: > 35 fold

B3: Variant 32478: HA PD-1:WT PD-L1 masked aCD40 Mab, uncleavable (antibody, human IgG1, kappa)
heavy: not shown
light: AFTVTVPKDLYVVEYGSNMTIECKFPVEKQLDLAALIVYWEMEDKNIIQFVHGEEDLKVQHSSYRQRARLLKDQLSLGNAALQITDVKLQDAGVYRCMISYGGADYKRITVKVNAEAAAKEAAAKDIQMTQSPSSVSASVGDRVTITCRASQGIYSWLAWYQQKPGKAPNLLIYTASTLQSGVPSRFSGSGSGTDFTLTISSLQPEDFATYYCQQANIFPLTFGGGTKVEIKRTVAAPSVFIFPPSDEQLKSGTASVVCLLNNFYPREAKVQWKVDNALQSGNSQESVTEQDSKDSTYSLSSTLTLSKADYEKHKVYACEVTHQGLSSPVTKSFNRGEC
notes: also called v32478
[17]
  EC50: 41 nM
[18]
  EC50, CD40 RGA, FcgRIIB CHOK1 (sample v32478 + uPa): 4.28 µg/mL
  EC50, CD40 RGA, FcgRIIB CHOK1 (sample v32478 - uPa): 5.43 µg/mL
  Fold wrt WT (EC50), CD40 RGA, FcgRIIB CHOK1 (sample v32478 + uPa): 88.2 fold
  Fold wrt WT (EC50), CD40 RGA, FcgRIIB CHOK1 (sample v32478 - uPa): 112 fold
[19]
  EC50: 65 nM
[20]
  Fold wrt WT: 67 fold
[21]
  Fold wrt WT: 42 fold

B4: Variant 30421: CD3 × Her2 Fab × scFv Fc without mask (bispecific antibody, human IgG1, kappa, L234A L235A)
heavy: not shown
light: B1 light
chain: not shown
notes: also called v30421; unmasked variant
[22]
  EC50: 1.2 nM
[5]
  Fold wrt v31929: > 570 fold
[23]
  Fold wrt WT: 1 fold
[7]
  Fold wrt v31931: > 35 fold
[24]
  EC50: 5.3 nM
[9]
  Fold wrt WT: 2.3 fold
[10]
  EC50: 2.3 nM
[13]
  EC50: 1.2 nM
[2]
  EC50: 2.1 nM

B5: Variant 17214: Unmasked aCDH3 mAb (antibody, human IgG1, lambda)
heavy: not shown
light: GQSALTQPASVSGSPGQSITISCTGTSNDVGAYNYVSWYQQHPGKAPKLMISEVNKRPSGVSNRFSGSKSGNTASLTISGLQAEDEADYYCSSFTSGLPWVVFGGGTKLTVLGQPKAAPSVTLFPPSSEELQANKATLVCLISDFYPGAVTVAWKADSSPVKAGVETTTPSKQSNNKYAASSYLSLTPEQWKSHRSYSCQVTHEGSTVEKTVAPTECS
[25]
  EC50: 0.36 nM
[26]
  Fold wrt WT: 1 fold

B6: Variant 28662: HA PD-1:WT PD-L1 masked aCDH3 Mab, uncleavable (antibody, human IgG1, lambda)
heavy: not shown
light: AFTVTVPKDLYVVEYGSNMTIECKFPVEKQLDLAALIVYWEMEDKNIIQFVHGEEDLKVQHSSYRQRARLLKDQLSLGNAALQITDVKLQDAGVYRCMISYGGADYKRITVKVNAEAAAKEAAAKQSALTQPASVSGSPGQSITISCTGTSNDVGAYNYVSWYQQHPGKAPKLMISEVNKRPSGVSNRFSGSKSGNTASLTISGLQAEDEADYYCSSFTSGLPWVVFGGGTKLTVLGQPKAAPSVTLFPPSSEELQANKATLVCLISDFYPGAVTVAWKADSSPVKAGVETTTPSKQSNNKYAASSYLSLTPEQWKSHRSYSCQVTHEGSTVEKTVAPTECS
[27]
  Fold wrt WT: 28 fold
[25]
  EC50: 9.8 nM

B7: Variant 30426: WT PD-1:HA PD-L1 masked CD3 × Her2 Fab × scFv Fc, with an uncleavable linker (bispecific antibody, human IgG1, kappa, L234A L235A)
heavy: not shown
light: B2 light with I37Q, Y39F, E41M, R96T, M98L, S100A, G102K
chain: not shown
[4]
  Fold wrt v31929: > 570 fold
[28]
  Fold wrt v31931: > 35 fold

B8: Variant 31729: HA PD-1:WT PD-L1 masked aMSLN Mab, PD-L1 cleavable (not treated with uPa) (antibody, human IgG1, kappa)
heavy: not shown
light: AFTVTVPKDLYVVEYGSNMTIECKFPVEKQLDLAALIVYWEMEDKNIIQFVHGEEDLKVQHSSYRQRARLLKDQLSLGNAALQITDVKLQDAGVYRCMISYGGADYKRITVKVNAEAAAKEAAAKMSGRSANADIQMTQSPSSLSASVGDRVTITCSASSSVSYMHWYQQKSGKAPKLLIYDTSKLASGVPSRFSGSGSGTDFTLTISSLQPEDFATYYCQQWSKHPLTFGQGTKLEIKRTVAAPSVFIFPPSDEQLKSGTASVVCLLNNFYPREAKVQWKVDNALQSGNSQESVTEQDSKDSTYSLSSTLTLSKADYEKHKVYACEVTHQGLSSPVTKSFNRGEC
[29]
  EC50: 74 nM
[30]
  Fold wrt WT (EC50): 31 fold
